Measured values: patent US20220054591A1, “METHODS OF TREATING OF INFLAMMATORY BOWEL DISEASE AND PARASITE INFECTION” (President and Fellows of Harvard College, priority 2016, published 2022)
“Also recorded” adds a separate entry of the source.

B1: IL-25: recombinant IL-25 (Biolegend; R&D), parasite-induced cytokine, added to organoids or injected i.p. (protein, UniProt Q8VHH8 17-169, looked up)
Interleukin-25: VSLRIQEGCSHLPSCCPSKEQEPPEEWLKWSSASVSPPEPLSHTHHAESCRASKDGPLNSRAISPWSYELDRDLNRVPQDLYHARCLCPHCVSLQTGSHMDPLGNSVPLYHNQTVFYRRPCHGEEGTHRRYCLERRLYRVSLACVCVRPRVMA
B2: IL-13: recombinant IL-13 (Biolegend), type 2 cytokine added to organoid media (protein, UniProt P20109 19-131, looked up)
Interleukin-13: APGPVPRSVSLPLTLKELIEELSNITQDQTPLCNGSMVWSVDLAAGGFCVALDSLTNISNCNAIYRTQRILHGLCNRKAPTTVSSLPDTKIEVAHFITKLLSYTKQLFRHGPF

Legend:
[1] = tested on: Tritrichomonas muris; test: Metronidazole in drinking water of WT (BIH) mice: T. muris abundance in stool DNA by qPCR; assay type: in vivo; conditions: metronidazole 2.5 g/L in drinking water for 1 week
Procedure: (§1) Antibiotic treatment—Mice were treated with metronidazole (2.5 g/L) with 1% sucrose in the drinking water for 7 days. Control mice were given 1% sucrose water over the same time span. Fluid intake was monitored and metronidazole solution was changed 4 days after initiating antibiotic treatment.
Tritrichomonas muris enumeration—The distal 10 cm of small intestine was removed and flushed with ice-cold sterile PBS using a 19-gauge feeding needle. The intestinal contents were then pelleted by centrifugation and stored at −20° C. Genomic DNA was isolated from the stool with QIamp Fast DNA Stool mini kit (Qiagen) according to the manufacturer's directions. To detect and enumerate Tritrichomonas muris, quantitative PCR (qPCR) was performed using KAPPA SYBR fast Universal PCR (KAPPA Biosystems) with the following primers recognizing T. muris 28S rRNA gene: 5′-[…]-3′(SEQ ID NO. 1) and 5′-[…]-3′ (SEQ ID NO. 2). To convert qPCR values into parasite numbers, T. muris trophozoytes were isolated and counted using a hemocytomer before extracting genomic DNA and analyzing by qPCR. […] The T. muris 28S rRNA gene and Eubacteria 16S rRNA gene were amplified by qPCR and T. muris 28S relative abundance was calculated as 2^−ΔCt(28S-16S).

[2] = tested on: tuft cells; test: Metronidazole in drinking water of WT (BIH) mice: tuft cell frequency in the epithelium; assay type: in vivo; conditions: metronidazole 2.5 g/L in drinking water for 1 week, vs control
Procedure: as §1
Histology and Fluorescence microscopy —The small intestine was removed and divided into proximal and distal sections before fixation in 4% paraformaldehyde. The tissue was then embedded in paraffin and cut into 5 μm thick sections. For both histology and immunofluorescence, sections were initially deparaffinized and rehydrated. Hematoxylin and eosin (H&E) staining was performed using standard procedures. Goblet cells were identified by alcian blue/nuclear red staining and enumerated along the crypt-villus axis by quantitative microscopy. For immunofluorescence, heat-mediated antigen retrieval was performed in Tris-EDTA buffer 0.05% Tween-20 pH 9.0 for 20 minutes. Afterwards, the slides were washed in PBS and blocked in PBS containing 3% BSA, 3% donkey serum, 0.1% Triton X-100, 0.1% saponin for 1 hour at room temperature. Primary antibodies were incubated overnight at 4° C. and secondary antibodies were applied for 1.5 hours at room temperature. […]

[3] = tested on: tuft cells in small intestinal organoids; test: Small intestinal organoids treated with recombinant cytokine: GFP+ tuft cell abundance by flow cytometry; assay type: cell-based, mice; conditions: 48 hours; for effect on tuft cell numbers / abundance in organoids (in words): WT and Trpm5-/- organoids, IL-13 10 ng/ml or IL-25 50 ng/ml; for tuft cells of total organoid cells: IL-13 10 ng/ml, untreated 0.3%
Procedure: Small intestine organoid culture and flow cytometry—Distal small intestinal organoids were prepared as previously described (Miyoshi et al., Nat Protoc. 8, 2471-2482 (2013)). To assess cytokine effects on tuft cells abundance, IL-13 (10 ng/ml, Biolegend, Endotoxin level <0.01 ng/μg) or IL-25 (50 ng/mil, Biolegend, Endotoxin level <0.01 ng/μg) were added to organoid media for 48 hours. To perform flow cytometry, organoids were liberated from the matrigel matrix as described by Miyoshi et al. and digested in DMEM containing 10% FBS, 0.5 units/ml Dispase II (StemCell Technologies), 50 μg/ml DNase (Roche) for 8 minutes at 37° C. The resulting solution was filtered through 40 μm mesh and stained for flow cytometry with APC-conjugated anti-EpCam (clone G8.8, Biolegend) with cell viability assessed with PI (Biolegend).

[4] = tested on: eosinophils and tuft cells of the distal small intestine; test: In vivo IL-25 i.p. injections in T. muris colonized Trpm5-/- mice: eosinophils and tuft cells of distal small intestine; conditions: 0.5 μg IL-25 i.p. daily for 7 days, vs PBS
Procedure: Epithelial cell isolation and flow cytometry —The distal 10 cm of small intestine was removed and flushed as described above. The intestine was opened longitudinally and gently agitated at 4° C. in PBS, 2% FBS, 5 mM EDTA, 1 mM DTT for 10 min. The tissue was then transferred into prewarmed PBS, 2% FBS, 5 mM EDTA and rotated at 37° C. for 15 minutes followed by vigorous shaking to remove epithelial cells. This was repeated and epithelial cells from both fractions were combined and washed with PBS. The epithelium was then digested in DMEM containing 10% FBS, 0.5 units/ml Dispase II (StemCell Technologies), 50 μg/ml DNase (Roche) for 12 minutes at 37° C. The resulting solution was passed through 40 μm filters and washed with PBS, 2% FBS, 1 mM EDTA. The resulting single cell suspension was initially Fc blocked with anti-CD16/CD32 (clone 93, Biolegend) and then stained with the following antibodies: PacBlue-conjugated anti-CD45 (clone 30-F11, Biolegend), APC-conjugated anti-EpCam (clone G8.8, Biolegend). The cell viability was assessed by propidium iodide (PI) (Biolegend) staining.
Lamina propria cell isolation and flow cytometry—The distal 10 cm of small intestine was collected and epithelial cells were removed as detailed above. […]

[5] = tested on: DCLK1 and Trpm5 expression in organoids; test: Small intestinal organoids treated with cytokine: gene expression by RT-qPCR; assay type: cell-based, mice; conditions: IL-13 treated organoids
Excerpt: RNA isolation and RT-PCR for in vivo and vitro tuft cells—Epithelial cells from Gfi1b^EGFP/+ mice were isolated and stained for Fluorescence Activated Cell Sorting (FACS) as previously detailed. Tuft cells were sorted based on GFP^+EpCam^+CD45^−PI^− while the remaining epithelial cells were GFP-EpCam^+CD45^−PI^−. RNA was then extracted from tuft cells and the remaining epithelium using RNeasy Micro Kit (Qiagen). Whole intestinal organoids were initially stored in RNAlater solution (Ambion) before extracting RNA using Qiazol (Qiagen) according to the manufacturer's directions. cDNA was synthesized using the iScript cDNA Synthesis Kit (Bio-Rad) and RT-qPCR was performed using the KAPA SYBR FAST Universal qPCR Kit (KAPA Biosystems). […]
Small intestine organoid culture and flow cytometry—Distal small intestinal organoids were prepared as previously described (Miyoshi et al., Nat Protoc. 8, 2471-2482 (2013)). […] The resulting solution was filtered through 40 μm mesh and stained for flow cytometry with APC-conjugated anti-EpCam (clone G8.8, Biolegend) with cell viability assessed with PI (Biolegend).

| Molecule | T. muris levels in stool (T. muris 28S rRNA relative to eubacteria 16S rRNA) [1] | tuft cell abundance / frequency in the epithelium [2] | effect on tuft cell numbers / abundance in organoids (in words) [3] | distal small intestinal eosinophilia [4] | tuft cell abundance in distal small intestine [4] | tuft cells of total organoid cells ([3]; Trpm5-/- organoids) | tuft cells of total organoid cells ([3]; WT organoids) | expression of Dclk1 in organoids [5] | expression of Trpm5 in organoids [5] |
| --- | --- | --- | --- | --- | --- | --- | --- | --- | --- |
| Cc1ncc([N+](=O)[O-])n1CCO [metronidazole] | eliminated T. muris; also recorded: below the limit of detection | reduced tuft cell abundance; also recorded: reduces tuft cell frequency |  |  |  |  |  |  |  |
| B1 |  |  | did not increase tuft cell numbers | restoration | restoration |  |  |  |  |
| B2 |  |  | increases tuft cell abundance |  |  | 10.9% | 11.9% | increased | increased |
